Data on 2 proteins can be found in PMC5032992.

Numbering of substitutions follows the chain as printed. In names and notes the source's numbering stands.

Substrate in data set [1]: O=[N+]([O-])c1ccc(O[C@@H]2O[C@H](CO)[C@@H](O)[C@H](O)[C@H]2O)cc1
The experiment in a line: purified protein. The conditions noted are these: citrate phosphate buffer pH 5, 0.1-6 mM substrate.

Substrate in data set [2]: O=[N+]([O-])c1ccc(O[C@@H]2O[C@@H](CO)[C@H](O)[C@H]2O)cc1
The experiment in a line: purified protein. Conditions: pH 5.0, 40 °C, 10 min, 0.1-2.0 mM substrate, 40.0 °C.

B1: rPoAbf (recombinant α‐L‐arabinofuranosidase from Pleurotus ostreatus) (Pleurotus sp. 'Florida') (protein)
chain: QTVSVSATASHPIPTTLWGQMFEDISHSGDGGLYAELLQNRALQQVTPNTAASLNAWSAINGGQISVVADSVPVSNSLPNSLRFTVPAGRTGQVGFANSGFFGMKIVASSTYKGSFFVKFPTASSFTGNLIVGLRTTSGSTIVSQTVPIRGASTSWQQISVSLTPRTTPPSTDNQFFVTIDGAAASGQTINFAMFSLFPPTFKNRANGMRDDIATALAEMKPKFFRFPGGNNLEGQTVPTRWQWNATIGSLLDRPGRAGDWGYINTDGLGLLEYLLFCEDLGMEPIMAVWAGFALGGTSVAQNGLQPYIQQAIDQINFVIGDPATSAPAARRAALGRAQPFKLTYVEIGNEDFFASDTYTYRWPAFVNALRGAFPNLKFIATSNINSPVLSPNPAQWDHHVYQTPTWFAQNSFFYDDMPRNGVTFFEGEYAAISTNPNDIFGSPANGRLTFSTMQSASGEAAYMIGMERNSDIVFAASYAPLLGHVAGSQWTPNLIAFDTGNVYRSASYFVQKLFSTNMGNEYIPSTLPSRTGTAFWGVTRNTATGEIIIKVSNTVAAQANLTFVLPFANVATSGSLQVLTGAATASNSPTTPSALAPATRTITTGKTFTFAAAGFSVNVITIKAS
On to B1, for which, in the data set “purified protein [1]”, the Km – broadly, the concentration of substrate that gives half-maximal velocity – is on record as 4.07 ± 0.15 mM; the kcat (commonly the number of substrate molecules converted per active site and unit of time at saturation) came to 11.0 ± 0.6 min⁻¹. For the same protein, in “purified protein [2]”, the Km is on record as 0.64 ± 0.11 mM and the kcat is 3,010 ± 145 Min^−1.

B2: rPoAbf (recombinant α‐L‐arabinofuranosidase from Pleurotus ostreatus) (Pleurotus sp. 'Florida'; S160G) (protein)
chain: B1 chain with S140G
Take B2: in “purified protein [1]”, the Km worked out at 5.03 ± 0.12 mM and the kcat amounted to 23.0 ± 0.9 min⁻¹. For the same protein, in “purified protein [2]”, the Km stood at 0.89 ± 0.19 mM and the kcat was 2,590 ± 165 Min^−1.
